Blank lines part the entries; values can stand above or below the molecule they belong to.
How the values were obtained:
[1] = target: β2AR-T4L; format: binding, human
[2] = target: mBB-β2AR/HDL (Homo sapiens, UniProt P07550); assay: Bimane fluorescence spectroscopy on mBB-β2AR reconstituted in HDL particles; format: biochemical
[3] = target: β2 adrenergic receptor truncated at position 365, reconstituted in HDL particles (Homo sapiens (Human)., UniProt P07550); assay: radioligand binding

- Ki ([1]; read-out: Ki in the presence of Nb80, β2AR-T4L/HDL, Nb80 1 μM, 0.6 nM [3H]-DHA): 0.56 nM
- increase of affinity in the presence of Nb80 ([1]; β2AR-T4L/HDL with Nb80 versus without): 60 fold
Molecule: isoproterenol

- effect on bimane fluorescence of β2AR bound to inverse agonist ICI-118,551 ([2]; 300 nM Nb80, 1 μM ICI): not observed
- effect on bimane fluorescence in the presence of isoproterenol ([2]; 300 nM Nb80, 10 μM isoproterenol): increased
- binding result [3]: binds
B1: Nanobody-80 (VHH)
VHH: QVQLQESGGGLVQAGGSLRLSCAASGSIFSINTMGWYRQAPGKQRELVAAIHSGGSTNYANSVKGRFTISRDNAANTVYLQMNSLKPEDTAVYYCNVKDYGAVLYEYDYWGQGTQVTVSS
